# Results from the supplement of paper PMC10567573.
# B1: SNAP91 (parent)
# chain: FATASAAVPVSTSKPSSDLLDLQP
# Variants of: B1
# Experiment: protein stability index of a GFP-peptide fusion (GPS, HEK-293T) (PSI 1-6); higher = more stable
# Settings: c terminus: a fixed tail appended
# 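Further: lentivirally expressed fusions sorted by FACS into six bins by GFP to DsRed ratio, PSI derived from sequencing read proportions per bin multiplied by bin number.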
row,Variant,protein stability index
1,FATASAAVPVSTSKPSSDLLDLGP [Q23G],3.79
2,FATASAAVPVSTSKPSSDLLDLPP [Q23P],4.13
3,FATASAAVPVSTSKPSSDLLDLYP [Q23Y],2.8
4,FATASAAVPVSTSKPSSDLLDLMP [Q23M],3.29
5,FATASAAVPVSTSKPSSDLLDLSP [Q23S],4.18
6,FATASAAVPVSTSKPSSDLLDLEP [Q23E],4.46
7,FATASAAVPVSTSKPSSDLLDLKP [Q23K],3.42
8,FATASAAVPVSTSKPSSDLLDLTP [Q23T],3.96
9,FATASAAVPVSTSKPSSDLLDLNP [Q23N],4.08
10,FATASAAVPVSTSKPSSDLLDLLP [Q23L],3.38
11,FATASAAVPVSTSKPSSDLLDLHP [Q23H],3.35
12,FATASAAVPVSTSKPSSDLLDLVP [Q23V],3.4
13,FATASAAVPVSTSKPSSDLLDLIP [Q23I],2.92
14,FATASAAVPVSTSKPSSDLLDLFP [Q23F],2.7
15,FATASAAVPVSTSKPSSDLLDLDP [Q23D],3.97
16,FATASAAVPVSTSKPSSDLLDLCP [Q23C],3.61
17,FATASAAVPVSTSKPSSDLLDLAP [Q23A],3.5
18,FATASAAVPVSTSKPSSDLLDLWP [Q23W],2.69
19,FATASAAVPVSTSKPSSDLLDTQP [L22T],4.3
20,FATASAAVPVSTSKPSSDLLDNQP [L22N],4.4
21,FATASAAVPVSTSKPSSDLLDWQP [L22W],2.96
22,FATASAAVPVSTSKPSSDLLDGQP [L22G],3.93
23,FATASAAVPVSTSKPSSDLLDRQP [L22R],4.14
24,FATASAAVPVSTSKPSSDLLDFQP [L22F],3.59

row,Variant,protein stability index
1,FATASAAVPVSTSKPSSDLLDHQP [L22H],4.07
2,FATASAAVPVSTSKPSSDLLDCQP [L22C],3.84
3,FATASAAVPVSTSKPSSDLLDEQP [L22E],4.76
4,FATASAAVPVSTSKPSSDLLDPQP [L22P],4.4
5,FATASAAVPVSTSKPSSDLLDMQP [L22M],3.87
6,FATASAAVPVSTSKPSSDLLDKQP [L22K],4.16
7,FATASAAVPVSTSKPSSDLLDAQP [L22A],4.49
8,FATASAAVPVSTSKPSSDLLDYQP [L22Y],3.99
9,FATASAAVPVSTSKPSSDLLDIQP [L22I],3.71
10,FATASAAVPVSTSKPSSDLLDDQP [L22D],4.22
11,FATASAAVPVSTSKPSSDLLDSQP [L22S],4.16
12,FATASAAVPVSTSKPSSDLLDQQP [L22Q],4.3
13,FATASAAVPVSTSKPSSDLLDVQP [L22V],3.85
14,FATASAAVPVSTSKPSSDLLYLQP [D21Y],2.67
15,FATASAAVPVSTSKPSSDLLHLQP [D21H],3.27
16,FATASAAVPVSTSKPSSDLLGLQP [D21G],4.09
17,FATASAAVPVSTSKPSSDLLMLQP [D21M],3.23
18,FATASAAVPVSTSKPSSDLLCLQP [D21C],2.91
19,FATASAAVPVSTSKPSSDLLFLQP [D21F],2.52
20,FATASAAVPVSTSKPSSDLLRLQP [D21R],3.28
21,FATASAAVPVSTSKPSSDLLLLQP [D21L],2.48
22,FATASAAVPVSTSKPSSDLLALQP [D21A],3.4
23,FATASAAVPVSTSKPSSDLLQLQP [D21Q],3.57
24,FATASAAVPVSTSKPSSDLLWLQP [D21W],1.78

row,Variant,protein stability index
1,FATASAAVPVSTSKPSSDLLNLQP [D21N],3.59
2,FATASAAVPVSTSKPSSDLLKLQP [D21K],3.41
3,FATASAAVPVSTSKPSSDLLPLQP [D21P],3.79
4,FATASAAVPVSTSKPSSDLLILQP [D21I],2.93
5,FATASAAVPVSTSKPSSDLLSLQP [D21S],3.25
6,FATASAAVPVSTSKPSSDLLELQP [D21E],4.22
7,FATASAAVPVSTSKPSSDLLVLQP [D21V],3.23
8,FATASAAVPVSTSKPSSDLLTLQP [D21T],3.51
9,FATASAAVPVSTSKPSSDLLDLQI [P24I],3.3
10,FATASAAVPVSTSKPSSDLLDLQW [P24W],2.35
11,FATASAAVPVSTSKPSSDLLDLQM [P24M],3.52
12,FATASAAVPVSTSKPSSDLLDLQD [P24D],4.52
13,FATASAAVPVSTSKPSSDLLDLQQ [P24Q],4.06
14,FATASAAVPVSTSKPSSDLLDLQR [P24R],3.71
15,FATASAAVPVSTSKPSSDLLDLQN [P24N],3.43
16,FATASAAVPVSTSKPSSDLLDLQT [P24T],3.88
17,FATASAAVPVSTSKPSSDLLDLQY [P24Y],3.27
18,FATASAAVPVSTSKPSSDLLDLQE [P24E],4.53
19,FATASAAVPVSTSKPSSDLLDLQH [P24H],3.74
20,FATASAAVPVSTSKPSSDLLDLQA [P24A],3.94
21,FATASAAVPVSTSKPSSDLLDLQS [P24S],3.64
22,FATASAAVPVSTSKPSSDLLDLQC [P24C],3.56
23,FATASAAVPVSTSKPSSDLLDLQK [P24K],4.34
24,FATASAAVPVSTSKPSSDLLDLQG [P24G],3.63

row,Variant,protein stability index
1,FATASAAVPVSTSKPSSDLLDLQL [P24L],3.1
2,FATASAAVPVSTSKPSSDLLDLQV [P24V],3.41
3,FATASAAVPVSTSKPSSDLLDLQF [P24F],2.8
4,FATASAAVPVSTSKPSSDLHDLQP [L20H],3.9
5,FATASAAVPVSTSKPSSDLYDLQP [L20Y],3.74
6,FATASAAVPVSTSKPSSDLVDLQP [L20V],4.12
7,FATASAAVPVSTSKPSSDLNDLQP [L20N],3.61
8,FATASAAVPVSTSKPSSDLCDLQP [L20C],3.93
9,FATASAAVPVSTSKPSSDLQDLQP [L20Q],4.14
10,FATASAAVPVSTSKPSSDLGDLQP [L20G],4.12
11,FATASAAVPVSTSKPSSDLTDLQP [L20T],3.92
12,FATASAAVPVSTSKPSSDLWDLQP [L20W],2.97
13,FATASAAVPVSTSKPSSDLPDLQP [L20P],4.36
14,FATASAAVPVSTSKPSSDLDDLQP [L20D],4.48
15,FATASAAVPVSTSKPSSDLEDLQP [L20E],4.34
16,FATASAAVPVSTSKPSSDLSDLQP [L20S],4.29
17,FATASAAVPVSTSKPSSDLRDLQP [L20R],4.09
18,FATASAAVPVSTSKPSSDLMDLQP [L20M],3.74
19,FATASAAVPVSTSKPSSDLKDLQP [L20K],4.33
20,FATASAAVPVSTSKPSSDLADLQP [L20A],4
21,FATASAAVPVSTSKPSSDLFDLQP [L20F],3.15
22,FATASAAVPVSTSKPSSDLIDLQP [L20I],3.62
